Results from the RNAGym collection of RNA variant scans (doi:10.1073/pnas.2313332121).

B1: TPR t1 (parent)
chain: GACCAAUCUGCCCUCAGAGCUCGAGAACAUCUUCGGAUGCAGAGGAGGCAGGCUUCGGUGGCGCGAUAGCGCCAACGUCCUCAACCUCCAAUGCAUCCCACCACAUGAUGAUGCCUGAAGAGCCUUGGUUUUUUG

Variants of: B1
Test: polymerase ribozyme fitness, log enrichment relative to wild type (log ratio); higher = more active; in vitro selection for triplet polymerase activity
Procedure, shortened: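 To select mutant libraries of each subunit of a heterodimeric triplet polymerase ribozyme, built by PCR and transcribed, each was annealed with a biotinylated primer, partner subunit and triplets, then incubated frozen at −7 °C. Extended constructs were gel-excised, captured on streptavidin beads and amplified by RT-PCR, in one round carried out in triplicate. Illumina sequencing of input and output libraries kept genotypes with ≥10 input reads and ≥1 read per output. Fitness is the base-2 logarithm of genotype enrichment relative to wild-type enrichment, from inverse-variance-weighted replicate averages.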

In order of rising “polymerase ribozyme fitness (log ratio)” value:
1. C88A C99A U125G  -6.88
2. U78G C82G C99A U112G G128U  -6.81
3. C86G G110A G113U C124A  -6.69
4. U81G G110A  -6.43
5. C85G G113C C114A U132C  -6.29
6. A84G C98A  -6.26
7. C82U U96A U109C  -5.99
8. C82G A108G A111G A121C  -5.85
9. C80A C82U A83U C101G  -5.83
10. C82G C97A C124A U125G  -5.83
11. A84C C85U U87A C89G C124A  -5.8
12. C80G  -5.78
13. A84U A105C U116C  -5.74
14. U87G A103C  -5.65
15. A83G C97A  -5.59
16. U81G U112G  -5.41
17. U81G U129A  -5.4
18. C80A G93A C124A G128A  -5.36
19. C80U U112G G117C  -5.23
20. C80A C86G  -5.2
21. C79U U109G  -5.09
22. C82U C86A C97A  -4.95
23. C79U C98A  -4.92
24. C80A G113U  -4.78
25. C79A U87C G113U  -4.71
26. C79U C82A U87A G110C  -4.6
27. C86A G93U C115U  -4.53
28. U81G C104U G122A  -4.33
29. U78G C97G  -4.29
30. C79G C124G U125A  -4.24
31. U81G C89G A121G  -4.14
32. U81G C88U  -4.05
33. A83U G93C C104U U116G G122A  -4.03
34. A84G C98U A100U  -4.01
35. C82G A95C G110U  -3.96
36. C79A C89A A118G  -3.86
37. C80U U109C  -3.85
38. C88A U92A G113A  -3.73
39. C79A U81C C89U G93U G120C C124U  -3.62
40. C79A A83U  -3.6
41. A83C A111U  -3.57
42. C88U C89A C115U G117C U126A  -3.5
43. A84U A90G C98G U109A A121U  -3.5
44. C79U G113A C123U U129C  -3.48
45. C79A C89A  -3.43
46. C79A U112A G128U  -3.42
47. C85G A108G  -3.15
48. U81C C86U U116G  -3.1
49. C88U G113U  -3.09
50. A84G G93U C101A  -3.07
51. C79U A111U  -3.01
52. U78G A111U U131A  -2.99
53. C82G U112G  -2.98
54. C85U C101G C115A  -2.93
55. C79U C94A C99U A121G  -2.9
56. A84G U116G  -2.89
57. C80A  -2.86
58. U78G C97A  -2.84
59. C88U G113C  -2.8
60. C86A G110U  -2.79
61. U78C U116G  -2.79
62. U81G C94U A121G  -2.71
63. C80A U112A  -2.64
64. C88G U96A  -2.61
65. C86A A105C  -2.57
66. C85G G127C  -2.56
67. A84U G128C  -2.56
68. C82U G93C G117U  -2.53
69. C80A U130C  -2.51
70. C88A A105C  -2.46
71. C85G C115G U132A  -2.4
72. C86U G110A  -2.37
73. C82U G113U  -2.32
74. A83U G128C  -2.32
75. U78C U126C U129C  -2.29
76. C82A C94U C98U U106C  -2.21
77. C82U G113C  -2.19
78. C82A G127A  -2.18
79. C82U C94U C114A  -2.17
80. C82G C94G  -2.14
81. C82U C114U  -2.08
82. U81C C114U  -1.96
83. U87A A105U  -1.78
84. C79U G93U  -1.77
85. C88G C89A  -1.75
86. C86G U126C  -1.74
87. A84C U87A U96A  -1.65
88. C88A C104A  -1.63
89. C86U G117A  -1.56
90. U81A C86G  -1.48
91. A84U C94A C115A  -1.46
92. C80U G93C  -1.44
93. U78C G135A  -1.44
94. C79U C89A G117U C123G  -1.41
95. U87A U130C  -1.39
96. C79U G113A  -1.38
97. A83U G120U U129C  -1.36
98. A83C C104A  -1.32
99. A84G U130G  -1.3
100. U87C G117A  -1.27
101. U78G C86G U112A C124G G135U  -1.2
102. C82A C115A  -1.19
103. C85G U112G  -1.15
104. U87G G117A  -1.13
105. U78C U112A G113A G122C U130C  -1.11
106. A84U C102U C123U  -1.1
107. U87G A103C U106C C124G  -1.08
108. C85G U106A  -1.05
109. C80U A90U  -0.991
110. C82A G122A  -0.963
111. U87C C94A  -0.939
112. U78C U131C  -0.936
113. C85A C124A U126G  -0.918
114. C85G C123A  -0.897
115. C86G C89G C104U  -0.896
116. A83C G135U  -0.881
117. A84C C94G U96C C124U  -0.869
118. U78G C94G  -0.85
119. A84U U133A  -0.823
120. C82A G117U  -0.792
121. C79G G120A  -0.791
122. C86U A100U  -0.74
123. C80U U131A  -0.732
124. C79U C89A C115A  -0.609
125. C88U C101U  -0.588
126. C82A U116C  -0.539
127. U78G C86U  -0.465
128. C80U  -0.463
129. C82U U87A  -0.441
130. C85G C124G U126G  -0.338
131. C86A G120C  -0.326
132. C80U U106C  -0.325
133. A84C U130C  -0.28
134. U78G C85A G120A  -0.262
135. U78G  -0.246
136. U87G U130G  -0.21
137. C80U A111G  -0.196
138. C86U A119U  -0.189
139. C82G C86U  -0.172
140. C88A G120U  -0.146
141. U78C U132C  -0.13
142. C86U C89U  -0.118
143. C79U C88U  -0.115
144. U87A C101U  0.0521
145. C79U G120U  0.0692
146. C86U U130C  0.0697
147. U78G C97U U116C A121U U131A  0.0734
148. U87A A118G  0.111
149. C86U G120A  0.277
150. C82G C123U  0.314
151. C85G U112C  0.41
152. U87G C123A  0.557
153. U87A U106A  0.566
154. A84C C123U U133G  0.656
155. U78G C123U  0.876
156. C82A U112A U131A  1.09
157. U87A G120C U131G  1.11
158. C85U U112C  1.15
159. U78C U112A A118U  1.17
160. U87A A121G  1.17
161. U87A A121C  1.23
162. C82G C86A A121U  1.39
163. C82A A118G A121G  1.48
164. A84C G120U  1.51
165. C88G C104U C123G  1.53
166. A84C C124U  1.55
167. U87A C123G  1.66
